B1: BBSome complex member BBS2 (Homo sapiens), Q9BXC9 (parent)
chain: MLLPVFTLKLRHKISPRMVAIGRYDGTHPCLAAATQTGKVFIHNPHTRNQHVSASRVFQSPLESDVSLLSINQAVSCLTAGVLNPELGYDALLVGTQTNLLAYDVYNNSDLFYREVADGANAIVLGTLGDISSPLAIIGGNCALQGFNHEGSDLFWTVTGDNVNSLALCDFDGDGKKELLVGSEDFDIRVFKEDEIVAEMTETEIVTSLCPMYGSRFGYALSNGTVGVYDKTSRYWRIKSKNHAMSIHAFDLNSDGVNELITGWSNGKVDARSDRTGEVIFKDNFSSAIAGVVEGDYRMDGHIQLICCSVDGEIRGYLPGTAEMRGNLMDTSAEQDLIRELSQKKQNLLLELRNYEENAKAELASPLNEADGHRGIIPANTRLHTTLSVSLGNETQTAHTELRISTSNDTIIRAVLIFAEGIFTGESHVVHPSIHNLSSSICIPIVPPKDVPVDLHLKAFVGYRSSTQFHVFESTRQLPRFSMYALTSLDPASEPISYVNFTIAERAQRVVVWLGQNFLLPEDTHIQNAPFQVCFTSLRNGGHLHIKIKLSGEITINTDDIDLAGDIIQSMASFFAIEDLQVEADFPVYFEELRKVLVKVDEYHSVHQKLSADMADHSNLIRSLLVGAEDARLMRDMKTMKSRYMELYDLNRDLLNGYKIRCNNHTELLGNLKAVNQAIQRAGRLRVGKPKNQVITACRDAIRSNNINTLFKIMRVGTASS
partner: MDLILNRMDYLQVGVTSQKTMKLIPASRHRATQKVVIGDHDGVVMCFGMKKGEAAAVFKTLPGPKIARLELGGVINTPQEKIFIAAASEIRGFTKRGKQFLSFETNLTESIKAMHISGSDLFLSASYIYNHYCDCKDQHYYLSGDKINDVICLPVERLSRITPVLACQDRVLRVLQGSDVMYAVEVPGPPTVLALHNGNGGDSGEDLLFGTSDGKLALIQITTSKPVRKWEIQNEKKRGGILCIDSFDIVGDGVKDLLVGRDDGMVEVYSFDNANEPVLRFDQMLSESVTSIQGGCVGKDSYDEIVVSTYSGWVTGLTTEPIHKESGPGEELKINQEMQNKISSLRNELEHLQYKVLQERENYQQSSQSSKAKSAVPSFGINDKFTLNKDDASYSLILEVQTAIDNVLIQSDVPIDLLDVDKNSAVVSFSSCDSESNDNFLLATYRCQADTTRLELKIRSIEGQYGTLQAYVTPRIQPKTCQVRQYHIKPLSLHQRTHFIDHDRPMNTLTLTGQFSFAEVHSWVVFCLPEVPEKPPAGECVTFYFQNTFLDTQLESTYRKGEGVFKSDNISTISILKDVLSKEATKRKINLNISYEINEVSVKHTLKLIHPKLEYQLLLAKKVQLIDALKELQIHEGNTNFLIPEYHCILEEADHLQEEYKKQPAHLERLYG

Variants of: B1
Settings: with BBS7, Q8IWZ6-2

Variant	effect of a mutation on the interaction
I567E	with no effect
I567K	with no effect
I568A	with no effect
I568E	disrupting interaction strength
I568K	with no effect
Q569A	with no effect
Q569E	with no effect
Q569K	with no effect
S570A	with no effect
S570E	with no effect
S570K	with no effect
M571A	with no effect
M571E	with no effect
M571K	with no effect
A572E	with no effect
A572K	with no effect
S573A	with no effect
S573E	with no effect
S573K	with no effect
F574A	with no effect
F574E	with no effect
F574K	with no effect
F574L	disrupting interaction strength

Variant	effect of a mutation on the interaction
F575A	with no effect
F575E	with no effect
F575K	with no effect
A576E	with no effect
A576K	with no effect
I577A	with no effect
I577E	with no effect
I577K	with no effect
E578A	with no effect
E578K	with no effect
D579A	with no effect
D579E	with no effect
D579K	with no effect
L580A	with no effect
L580E	with no effect
L580K	with no effect
Q581A	with no effect
Q581E	with no effect
Q581K	with no effect
V582A	with no effect
V582E	with no effect
V582K	with no effect
E583A	with no effect

Variant	effect of a mutation on the interaction
E583K	with no effect
A584E	with no effect
A584K	with no effect
D585A	with no effect
D585E	with no effect
D585K	with no effect
F586A	with no effect
F586E	with no effect
F586K	with no effect
P587A	with no effect
P587E	with no effect
P587K	with no effect
V588A	with no effect
V588E	with no effect
V588K	with no effect
Y589A	with no effect
Y589E	with no effect
Y589K	with no effect
F590A	with no effect
F590E	with no effect
F590K	with no effect
E591A	with no effect
E591K	with no effect

Variant	effect of a mutation on the interaction
E592A	with no effect
E592K	with no effect
L593A	with no effect
L593E	with no effect
L593K	with no effect
R594A	with no effect
R594E	with no effect
R594K	with no effect
K595A	with no effect
K595E	with no effect
V596A	with no effect
V596E	with no effect
V596K	with no effect
L597A	with no effect
L597E	with no effect
L597K	with no effect
V598A	with no effect
V598E	with no effect
V598K	with no effect
K599A	with no effect
K599E	with no effect

Source: IntAct's records for PubMed 29039417
